Columns and labels:
β-TrCP2 = β-TrCP2 (UniProt Q9UKB1); experiment: co-IP, anti-HA IP, anti-Flag blot; conditions: reference: wild type; sites S525
β-TrCP1 = β-TrCP1 (UniProt Q9Y297); experiment: co-IP, anti-HA IP, anti-Flag blot; conditions: reference: wild type; sites S525

Rap1GAP (from UniProt P47736) S525A
binding against the reference (β-TrCP2): weaker | binding against the reference (β-TrCP1): weaker

— publication PMC4201484
